How the values were obtained:
[1] = substrate: CCCCCCCCCCCCCCCC/C=C\OC[C@@H](O)COP(=O)([O-])OCC[N+](C)(C)C; assay: released choline by choline oxidase/peroxidase colorimetric assay, Michaelis-Menten fit; assay type: biochemical, Thermocrispum sp. RD004668; conditions: pH 8.0, 50 °C, 1 min, 2 mM CaCl2, substrate micelles
From the text: (§1) released choline by choline oxidase/peroxidase colorimetric assay, Michaelis-Menten fit on LyPls-PLD (lysoplasmalogen-specific phospholipase D)

[2] = substrate: CCCCCCCCCCCCCCCCOC[C@@H](O)COP(=O)([O-])OCC[N+](C)(C)C; assay: as above; assay type: biochemical, Thermocrispum sp. RD004668; conditions: pH 8.0, 50 °C, 1 min, 2 mM CaCl2, substrate micelles
From the text: as §1

Protein | Km [1] [µM] | kcat [1] [s⁻¹] | kcat/Km [1] [M⁻¹ s⁻¹] | Km [2] [µM] | kcat [2] [s⁻¹] | kcat/Km [2] [M⁻¹ s⁻¹]
LyPls-PLD (lysoplasmalogen-specific phospholipase D) (Thermocrispum sp. RD004668; F211L) (protein, recombinant from pET24/lpls-pld in E. coli BL21(DE3); purified on HisTrap HP) TTRTTDNPWLDARVLNMAHAGGENEAPANTLYAFKRAVKLGANMLELDVQSTKDDQLVVIHNATVDQTTDGTGKVRDLTFEQVHELDAAYNFIPGRHAVPGEPPESYPLRGVRTGEKKPPPGYQPSDFAIPKLADVLEAFPRTPINIEIKGTSDADIPSFLHNAKLLARLLKKTGRTDFIVTSLNDLAVAKFHLLAPDIPIAPGMAGLAAYFLLGVKPMHGTVALQIPVRYQGLEIATPEFIRRAHADGYAVHVWFSGTAPDDEATYNRIIDSCADGLMPAYPALLERILDERGIERPGRPGVDPCG | 76.7 ± 12.6 | 21 ± 0.91 | 271000 ± 46000 | 26.8 ± 8.55 | 187 ± 6.3 | 6.97e+06 ± 2.24e+06
LyPls-PLD (lysoplasmalogen-specific phospholipase D) (Thermocrispum sp. RD004668; F211C) (protein, recombinant from pET24/lpls-pld in E. coli BL21(DE3); purified on HisTrap HP) TTRTTDNPWLDARVLNMAHAGGENEAPANTLYAFKRAVKLGANMLELDVQSTKDDQLVVIHNATVDQTTDGTGKVRDLTFEQVHELDAAYNFIPGRHAVPGEPPESYPLRGVRTGEKKPPPGYQPSDFAIPKLADVLEAFPRTPINIEIKGTSDADIPSFLHNAKLLARLLKKTGRTDFIVTSCNDLAVAKFHLLAPDIPIAPGMAGLAAYFLLGVKPMHGTVALQIPVRYQGLEIATPEFIRRAHADGYAVHVWFSGTAPDDEATYNRIIDSCADGLMPAYPALLERILDERGIERPGRPGVDPCG | – | – | – | 52.2 ± 9.44 | 207 ± 15 | 3.96e+06 ± 769000
LyPls-PLD (lysoplasmalogen-specific phospholipase D) (Thermocrispum sp. RD004668; M71G) (protein, recombinant from pET24/lpls-pld in E. coli BL21(DE3); purified on HisTrap HP) TTRTTDNPWLDARVLNMAHAGGENEAPANTLYAFKRAVKLGANGLELDVQSTKDDQLVVIHNATVDQTTDGTGKVRDLTFEQVHELDAAYNFIPGRHAVPGEPPESYPLRGVRTGEKKPPPGYQPSDFAIPKLADVLEAFPRTPINIEIKGTSDADIPSFLHNAKLLARLLKKTGRTDFIVTSFNDLAVAKFHLLAPDIPIAPGMAGLAAYFLLGVKPMHGTVALQIPVRYQGLEIATPEFIRRAHADGYAVHVWFSGTAPDDEATYNRIIDSCADGLMPAYPALLERILDERGIERPGRPGVDPCG | 64.8 ± 4.18 | 57 ± 2.5 | 880000 ± 68500 | 69.3 ± 10.2 | 72 ± 2.9 | 1.04e+06 ± 159000
LyPls-PLD (lysoplasmalogen-specific phospholipase D) (Thermocrispum sp. RD004668; W282G) (protein, recombinant from pET24/lpls-pld in E. coli BL21(DE3); purified on HisTrap HP) TTRTTDNPWLDARVLNMAHAGGENEAPANTLYAFKRAVKLGANMLELDVQSTKDDQLVVIHNATVDQTTDGTGKVRDLTFEQVHELDAAYNFIPGRHAVPGEPPESYPLRGVRTGEKKPPPGYQPSDFAIPKLADVLEAFPRTPINIEIKGTSDADIPSFLHNAKLLARLLKKTGRTDFIVTSFNDLAVAKFHLLAPDIPIAPGMAGLAAYFLLGVKPMHGTVALQIPVRYQGLEIATPEFIRRAHADGYAVHVGFSGTAPDDEATYNRIIDSCADGLMPAYPALLERILDERGIERPGRPGVDPCG | 286 ± 51.7 | 10.5 ± 0.95 | 36000 ± 7250 | 71.7 ± 5.26 | 4.4 ± 0.082 | 60900 ± 4630
LyPls-PLD (lysoplasmalogen-specific phospholipase D) (Thermocrispum sp. RD004668) (protein, recombinant from pET24/lpls-pld in E. coli BL21(DE3); purified on HisTrap HP) TTRTTDNPWLDARVLNMAHAGGENEAPANTLYAFKRAVKLGANMLELDVQSTKDDQLVVIHNATVDQTTDGTGKVRDLTFEQVHELDAAYNFIPGRHAVPGEPPESYPLRGVRTGEKKPPPGYQPSDFAIPKLADVLEAFPRTPINIEIKGTSDADIPSFLHNAKLLARLLKKTGRTDFIVTSFNDLAVAKFHLLAPDIPIAPGMAGLAAYFLLGVKPMHGTVALQIPVRYQGLEIATPEFIRRAHADGYAVHVWFSGTAPDDEATYNRIIDSCADGLMPAYPALLERILDERGIERPGRPGVDPCG | 88.9 ± 8.76 | 122 ± 3.47 | 1.37e+06 ± 141000 | 56.4 ± 16.9 | 74 ± 4.9 | 1.3e+06 ± 400000
LyPls-PLD (lysoplasmalogen-specific phospholipase D) (Thermocrispum sp. RD004668; F211T) (protein, recombinant from pET24/lpls-pld in E. coli BL21(DE3); purified on HisTrap HP) TTRTTDNPWLDARVLNMAHAGGENEAPANTLYAFKRAVKLGANMLELDVQSTKDDQLVVIHNATVDQTTDGTGKVRDLTFEQVHELDAAYNFIPGRHAVPGEPPESYPLRGVRTGEKKPPPGYQPSDFAIPKLADVLEAFPRTPINIEIKGTSDADIPSFLHNAKLLARLLKKTGRTDFIVTSTNDLAVAKFHLLAPDIPIAPGMAGLAAYFLLGVKPMHGTVALQIPVRYQGLEIATPEFIRRAHADGYAVHVWFSGTAPDDEATYNRIIDSCADGLMPAYPALLERILDERGIERPGRPGVDPCG | – | – | – | 40.6 ± 5.49 | 205 ± 8.9 | 5.06e+06 ± 720000
LyPls-PLD (lysoplasmalogen-specific phospholipase D) (Thermocrispum sp. RD004668; N173A) (protein, recombinant from pET24/lpls-pld in E. coli BL21(DE3); purified on HisTrap HP) TTRTTDNPWLDARVLNMAHAGGENEAPANTLYAFKRAVKLGANMLELDVQSTKDDQLVVIHNATVDQTTDGTGKVRDLTFEQVHELDAAYNFIPGRHAVPGEPPESYPLRGVRTGEKKPPPGYQPSDFAIPKLADVLEAFPRTPIAIEIKGTSDADIPSFLHNAKLLARLLKKTGRTDFIVTSFNDLAVAKFHLLAPDIPIAPGMAGLAAYFLLGVKPMHGTVALQIPVRYQGLEIATPEFIRRAHADGYAVHVWFSGTAPDDEATYNRIIDSCADGLMPAYPALLERILDERGIERPGRPGVDPCG | 200 ± 42.3 | 42 ± 3.9 | 212000 ± 49000 | 110 ± 17.1 | 106 ± 4.0 | 965000 ± 153000
